Measured values as given in US20200308301A1 (Novartis, published 2020).

B1: NOV1401 (antibody, human IgG1, lambda, V domains shown)
VH: QVQLLESGGGLVQPGGSLRLSCAASGFTFSTAAMSWVRQAPGKGLEWVSGISGSGSSTYYADSVKGRFTISRDNSKNTLYLQMNSLRAEDTAVYYCARELSYLYSGYYFDYWGQGTLVTVSS
VL: QSVLTQPPSASGTPGQRVTISCSGSSSNIGSNDVSWYQQLPGTAPKLLIYKNYNRPSGVPDRFSGSKSGTSASLAISGLQSEDEADYYCSAWDQRQFDVVFGGGTKLTVLG
notes: It was amine-coupled to the chip in SPR, and used soluble and biotinylated in SET; also called anti-FXI/FXIa antibody NOV1401; anti-Factor XI/FXIa antibody NOV1401
B2: IDT3 (Fab, V domains shown)
VH: QVQLVESGGGLVKPGGSLRLSCAASGFTFQSAAVHWVRQAPGKGLEWVGRIKSKADGGTTDYAAPVKGRFTISRDDSKNTLYLQMNSLKTEDTAVYYCARDSPSISSYSIPYFSGMDVWGQGTLVTVSS
VL: DIQMTQSPSSLSASVGDRVTITCRASQGIRAWLNWYQQKPGKAPKLLIYAASSLQSGVPSRFSGSGSGTDFTLTISSLQPEDFATYYCHQYITHPPTFGQGTKVEIKR
notes: Fab; also called anti-NOV1401 Fab IDT3

How the values were obtained:
[1] = biological target: T1, Human plasma-derived FXIa (human, UniProt P03951 19-625); experiment: SPR, FXIa immobilized on GLC chip
T1 construct: also called Factor XIa
Experimental: SPR experiments were performed in principle as described in Example 2 with the following changes. Human plasma-derived FXIa was used as ligand and immobilized on an activated ProteOn GLC sensor chip (Bio-Rad Laboratories, Inc.) using standard amine coupling procedures as described and by injecting FXIa at a concentration of 10 μg/ml in 20 mM sodium acetate, pH 5.0 and at a flow rate of 30 μl/min for 10 min.
For binding competition studies NOV1401 and three mixture of NOV1401 with anti-NOV1401 Fab at molar ratios of 1:1, 1:2, and 1:10 were prepared in PBS/T buffer and injected in simultaneously onto surfaces with immobilized FXI at a flow rate of 100 μL/min. Sensorgrams were recorded for association and dissociation times of 220 s and 1800 s, respectively. Blank surfaces were used for background corrections.

[2] = biological target: B1; experiment: cell-based or functional assay
[3] = biological target: B1; experiment: SPR (ProteOn XPR36), NOV1401 immobilized, Fab as analyte, 1:1 Langmuir fit, average
Experimental: SPR binding experiments were performed on a ProteOn XPR36 instrument (Bio-Rad Laboratories, Inc.) in PBS/T buffer (50 mM phosphate, 150 mM NaCl, pH 7.4, 0.005% v/v Tween-20) at 25° C. NOV1401 (‘Ligand’) was immobilized onto an activated ProteOn GLC sensor chip (Bio-Rad Laboratories, Inc.) using standard amine coupling procedures as described by the manufacturer. Briefly, NOV1401 was injected at a concentration of 10 μg/ml in 20 mM sodium acetate, pH 5.0 and at a flow rate of 30 μl/min for 10 min. Unreacted groups were blocked by injecting 1 M ethanolamine.
For kinetic studies anti-NOV1401 Fabs (‘Analytes’) were diluted in PBS/T buffer to generate a dilution series with concentrations ranging from 0.125-4 nM. Fabs were injected onto surfaces with immobilized NOV1401 at a flow rate of 100 μL/min and sensorgrams were recorded for association and dissociation times of 220 s and 1800 s, respectively. Blank surfaces were used for background corrections. There was no need to regenerate surfaces since the ProteOn protein interaction array system allows to run up to six binding experiments on an identical surface in parallel.
Data processing and analysis including kon, koff, and KD determination were performed with the ProteOn Manager™ software version 3.1.0.6.

[4] = biological target: B1; experiment: Solution equilibrium titration (SET), 1:1 fit, average
Experimental: (§1) 14 serial (2×) dilutions of NOV1401 were prepared in sample buffer (PBS pH 7.4 containing 0.5% (w/v) BSA and 0.02% Tween 20) and a constant concentration of the anti-NOV1401 Fab or IgG was added to each NOV1401 concentration ranging from 40 pM to 240 pM. Optimal constant anti-NOV1401 Fab or IgG concentrations and optimal starting concentrations for NOV1401 dilution series were determined in pilot experiments.
(§2) After incubation and three times washing with PBST (PBS containing 0.05% Tween 20) 30 μl/well of the NOV1401/anti-NOV1401 Fab or IgG preparation was transferred from the polypropylene MTP to the NOV1401-coated SA plate and incubated for 30 min at RT on a MTP shaker. After three additional wash steps, 30 μl of 0.5 μg/ml detection antibody (Goat anti-human Kappa LC-HRP, BETHYL # A80-115P) diluted in sample buffer was added to each well and incubated for 1 h at RT with shaking. After washing the plate again three times, 30 μl of detection reagent (LumiGLO Peroxidase Chemiluminescent Substrate, KPL #54-61-01) was added to each well. Electrochemiluminescence (ECL) signals were generated and detected immediately with a luminescence imager (SpectraMax M5, Molecular Devices, LLC).
Average ECL-signals were calculated from duplicate measurements within each assay. Data were baseline adjusted by subtracting the lowest value from all data points and plotted against the corresponding antigen concentration. KD values were determined by fitting the plot with the following non-linear curve fitting model for 1:1 binding according to Haenel et al 2005: […]

[5] = biological target: B1; experiment: cell-based or functional assay; remark: listed apart in the source
[6] = biological target: T2, IDT7; experiment: SET: soluble NOV1401 titrated against constant IDT7 Fab; competitor is plate-bound biotinylated NOV1401; free Fab read as RLU
T2 construct: Fab; also called anti-NOV1401 Fab IDT7
Experimental: as §1
(§3) 30 µl/well of each dilution mix was distributed in duplicates to a 384-well polypropylene Eppendorf microplate (MTP). Sample buffer served as negative control and a sample containing no antigen as positive control (Bmax). The plate was sealed and incubated overnight at RT on a plate shaker.
as §2, with “After washing the plate again three times, 30 μl of detection reagent (LumiGLO Peroxidase Chemiluminescent Substrate, KPL #54-61-01) was added to each well.” left out

[7] = biological target: T3, IDT5; experiment: SET: soluble NOV1401 titrated against constant IDT5 Fab; competitor is plate-bound biotinylated NOV1401; free Fab read as RLU
T3 construct: Fab; also called anti-NOV1401 Fab IDT5
Experimental: as §1, §3
as §2, with “After washing the plate again three times, 30 μl of detection reagent (LumiGLO Peroxidase Chemiluminescent Substrate, KPL #54-61-01) was added to each well.” left out

[8] = biological target: B2; experiment: SET: soluble NOV1401 titrated against constant IDT3 Fab; competitor is plate-bound biotinylated NOV1401; free Fab read as RLU
Experimental: as §1, §3
as §2, with “After washing the plate again three times, 30 μl of detection reagent (LumiGLO Peroxidase Chemiluminescent Substrate, KPL #54-61-01) was added to each well.” left out

[9] = biological target: T4, IDT11; experiment: SET: soluble antigen (NOV1401 by the legend and Example 2, axis labelled MAA868) titrated against constant IDT11 IgG; competitor is plate-bound biotinylated NOV1401; free IgG read as RLU
T4 construct: also called anti-NOV1401 IgG IDT11; full length IgG format for IDT1
Experimental: as §1, §3
as §2, with “After washing the plate again three times, 30 μl of detection reagent (LumiGLO Peroxidase Chemiluminescent Substrate, KPL #54-61-01) was added to each well.” left out

[10] = biological target: T5, IDT10; experiment: SET: soluble NOV1401 titrated against constant IDT10 Fab; competitor is plate-bound biotinylated NOV1401; free Fab read as RLU
T5 construct: Fab; also called anti-NOV1401 Fab IDT10
Experimental: as §1, §3
as §2, with “After washing the plate again three times, 30 μl of detection reagent (LumiGLO Peroxidase Chemiluminescent Substrate, KPL #54-61-01) was added to each well.” left out

[11] = biological target: Human FXI in normal human plasma (human, UniProt P03951 19-625); experiment: cell-based or functional assay
[12] = biological target: T6, IDT8; experiment: SET: soluble NOV1401 titrated against constant IDT8 Fab; competitor is plate-bound biotinylated NOV1401; free Fab read as RLU
T6 construct: Fab; also called anti-NOV1401 Fab IDT8
Experimental: as §1, §3
as §2, with “After washing the plate again three times, 30 μl of detection reagent (LumiGLO Peroxidase Chemiluminescent Substrate, KPL #54-61-01) was added to each well.” left out

[13] = biological target: T7, IDT12; experiment: SET: soluble antigen (NOV1401 by the legend and Example 2, axis labelled MAA868) titrated against constant IDT12 IgG; competitor is plate-bound biotinylated NOV1401; free IgG read as RLU
T7 construct: also called anti-NOV1401 IgG IDT12; full length IgG format for IDT2
Experimental: as §1, §3
as §2, with “After washing the plate again three times, 30 μl of detection reagent (LumiGLO Peroxidase Chemiluminescent Substrate, KPL #54-61-01) was added to each well.” left out

[14] = biological target: T8, IDT4; experiment: SET: soluble NOV1401 titrated against constant IDT4 Fab; competitor is plate-bound biotinylated NOV1401; free Fab read as RLU
T8 construct: Fab; also called anti-NOV1401 Fab IDT4
Experimental: as §1, §3
as §2, with “After washing the plate again three times, 30 μl of detection reagent (LumiGLO Peroxidase Chemiluminescent Substrate, KPL #54-61-01) was added to each well.” left out

[15] = biological target: T9, IDT9; experiment: SET: soluble NOV1401 titrated against constant IDT9 Fab; competitor is plate-bound biotinylated NOV1401; free Fab read as RLU
T9 construct: Fab; also called anti-NOV1401 Fab IDT9
Experimental: as §1, §3
as §2, with “After washing the plate again three times, 30 μl of detection reagent (LumiGLO Peroxidase Chemiluminescent Substrate, KPL #54-61-01) was added to each well.” left out

Row | binding result [1] | aPTT percentage reversal, NOV1401/anti NOV1401 ratio 1/1 (n/n) [2] [%] | aPTT percentage reversal, NOV1401/anti NOV1401 ratio 1/3 (n/n) [2] [%] | aPTT percentage reversal, NOV1401/anti NOV1401 ratio 1/10 (n/n) [2] [%] | Kd [3] [nM] | Kd [4] [nM] | TGA percentage reversal, NOV1401/anti NOV1401 ratio 1/1 (n/n) [5] [%] | TGA percentage reversal, NOV1401/anti NOV1401 ratio 1/3 (n/n) [5] [%] | TGA percentage reversal, NOV1401/anti NOV1401 ratio 1/10 (n/n) [5] [%] | binding result [6] | binding result [7] | binding result [8] | IC50 (read off the curve) [9] [nM] | binding result [10] | TGA in human plasma: IC50 of NOV1401 for reduction of peak thrombin [11] [nM] | binding result [12] | IC50 (read off the curve) [13] [nM] | binding result [14] | binding result [15] | Binder
1 | no binding | 12 | 45 | 64 | 0.44 | 0.11 | 49 | 55 | 55 |  |  |  |  |  |  |  |  |  |  | IDT1 (Fab, V domains shown, Fab (heavy chain is VH-CH1); also called anti-NOV1401 Fab IDT1) VH: QVQLLESGGGLVQPGGSLRLSCAASGFTFSDYAMSWVRQAPGKGLEWVSVIDYSSSNTYYADSVKGRFTISRDNSKNTLYLQMNSLRAEDTAVYYCAREGYSYRSIRFDYWGQGTLVTVSS VL: DIQMTQSPSSLSASVGDRVTITCRASQSISSNLNWYQQKPGKAPKLLIYAASNLQSGVPSRFSGSGSGTDFTLTISSLQPEDFATYYCLQFDHTPFTFGQGTKVEIKR
2 |  |  |  |  |  |  |  |  |  | binds | binds | binds | ~0.008 | binds | 50 | binds | ~0.01 | binds | binds | B1
3 | no binding | 9 | 35 | 58 | 0.24 | 0.1 | 31 | 47 | 67 |  |  |  |  |  |  |  |  |  |  | B2
